Here are results for 21 molecules from patent US9695228B2, “EGFR and c-Met fibronectin type III domain binding molecules” (Janssen Biotech, Inc., priority 2012, dated 2017).

Like-named read-outs stand apart in the source and are kept apart here. Where only a bound is given, the exact number is not on record here.

Series [1] has as its system H292-HGF human lung cancer xenograft. The series is classed as in vivo. As to conditions: for Tumor Size at day 23: day 23 after tumor inoculation, doses as printed with treatment.
Description: The H292-HGF cells were maintained in vitro in RPMI1640 medium supplemented with fetal bovine serum (10% v/v), and L-glutamine (2 mM) at 37° C. in an atmosphere of 5% CO2 in air. The cells were routinely subcultured twice weekly by trypsin-EDTA treatment. The cells growing in an exponential growth phase were harvested and counted for tumor inoculation.
Each mouse was inoculated subcutaneously at the right flank region with H292-HGF tumor cells (2×10^6) in 0.1 ml of PBS with cultrex (1:1) for tumor development. The treatments were started when the mean tumor size reached 139 mm^3. […] The date of tumor cell inoculation was denoted as day 0.
Before commencement of treatment, all animals were weighed and the tumor volumes were measured. Since the tumor volume can affect the effectiveness of any given treatment, mice were assigned into groups using randomized block design based upon their tumor volumes. […] The randomized block design was used to assign experimental animals to groups. First, the experimental animals were divided into homogeneous blocks according to their initial tumor volume. Secondly, within each block, randomization of experimental animals to treatments was conducted.
At the time of routine monitoring, the animals were checked for any effects of tumor growth and treatments on normal behavior, such as mobility, visual estimation of food and water consumption, body weight gain/loss (body weights were measured twice weekly), eye/hair matting and any other abnormal effect.
The endpoint was whether tumor growth can be delayed or tumor bearing mice can be cured. Tumor size was measured twice weekly in two dimensions using a caliper, and the volume was expressed in mm^3 using the formula: V=0.5 a×b^2 where a and b are the long and short diameters of the tumor, respectively. The tumor size was then used for calculations of both T-C and T/C values. T-C was calculated with T as the time (in days) required for the mean tumor size of the treatment group to reach 1000 mm^3, and C was the time (in days) for the mean tumor size of the control group to reach the same size. The T/C value (in percent) was an indication of antitumor efficacy; T and C were the mean tumor volume of the treated and control groups, respectively, on a given day. Complete tumor regression (CR) is defined as tumors that are reduced to below the limit of palpation (62.5 mm^3). Partial tumor regression (PR) is defined as tumors that are reduced from initial tumor volume. A minimum duration of CR or PR in 3 or more successive tumor measurements is required for a CP or PR to be considered durable.
Animals for which the body weight loss exceeded 20%, or for which the mean tumor size of the group exceeds 2000 mm^3 were euthanized. The study was terminated after two weeks of observation after the final dose.
Statistical analyses of difference in tumor volume among the groups were evaluated using a one-way ANOVA followed by individual comparisons using Games-Howell (equal variance not assumed). All data were analyzed using SPSS 18.0. p<0.05 was considered to be statistically significant.
Series [2] concerns the target T1, c-Met-Fc fusion protein (Homo sapiens, UniProt P08581).
T1 construct: recombinant EGFR and/or c-Met extracellular domain was further analyzed by surface Plasmon resonance
Kind of series: c-Met-Fc affinity by surface plasmon resonance (ProteOn). The series is classed as binding. Particulars: for binding to c-Met (in words): SPR; for Kd / ka / kd: serine mutants of A3 in the context of ECB15, SPR. For orientation: SPR reads the build-up and loss of mass on a sensor chip optically.

Series [3] is described as follows: Differential scanning calorimetry in PBS (thermal stability). The series is classed as physicochemical. Particulars: DSC in PBS, c-Met-binding FN3 domains. For orientation: In DSC, transitions show as peaks or steps in heat flow.

T1 sequence (P08581 25-932 limits assumed): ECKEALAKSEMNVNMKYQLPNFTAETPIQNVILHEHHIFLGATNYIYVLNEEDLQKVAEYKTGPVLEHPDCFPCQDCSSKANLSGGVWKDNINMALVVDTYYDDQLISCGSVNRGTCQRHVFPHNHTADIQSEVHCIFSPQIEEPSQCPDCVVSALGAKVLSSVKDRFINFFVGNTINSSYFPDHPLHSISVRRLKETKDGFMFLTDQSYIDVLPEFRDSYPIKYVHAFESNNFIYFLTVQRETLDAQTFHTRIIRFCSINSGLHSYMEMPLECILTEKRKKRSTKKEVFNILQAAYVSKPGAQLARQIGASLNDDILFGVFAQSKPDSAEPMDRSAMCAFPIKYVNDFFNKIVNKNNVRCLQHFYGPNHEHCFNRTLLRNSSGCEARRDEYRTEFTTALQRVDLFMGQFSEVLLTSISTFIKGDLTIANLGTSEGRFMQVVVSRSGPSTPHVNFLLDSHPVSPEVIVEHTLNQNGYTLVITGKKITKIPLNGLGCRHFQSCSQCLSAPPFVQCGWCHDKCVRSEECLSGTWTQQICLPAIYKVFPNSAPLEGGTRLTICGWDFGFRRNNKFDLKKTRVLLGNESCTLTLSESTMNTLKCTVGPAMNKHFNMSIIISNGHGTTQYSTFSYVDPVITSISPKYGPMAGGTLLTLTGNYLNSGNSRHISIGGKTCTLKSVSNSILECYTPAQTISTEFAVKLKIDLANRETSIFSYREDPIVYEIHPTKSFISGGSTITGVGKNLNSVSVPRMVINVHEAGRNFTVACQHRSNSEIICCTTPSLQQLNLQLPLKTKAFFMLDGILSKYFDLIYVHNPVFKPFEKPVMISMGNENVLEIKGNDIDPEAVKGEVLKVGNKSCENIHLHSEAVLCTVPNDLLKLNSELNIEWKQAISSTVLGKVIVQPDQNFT

Regarding `C#Cc1cccc(Nc2ncnc3cc(OCCOC)c(OCCOC)cc23)c1` [Erlotinib, erlotinib, reference compound], in series [1] (doses as in Table 14), the “tolerability / body weight loss (in words)” value is on record as “More severe body weight loss”.

Turning to `C[C@@H](Oc1cc(-c2cnn(C3CCNCC3)c2)cnc1N)c1c(Cl)ccc(F)c1Cl` [Crizotinib, crizotinib, reference compound], the “T-C at 1000 mm^3 (tumor growth delay)” value in series [1] (compared with the vehicle group) is -1 days. The Tumor volume came to 140 ± 9 mm^3 in series [1] (day 7 (start of treatment), mean ± SEM, doses as in column head); 217 ± 20 mm^3 in series [1] (day 9, mean ± SEM); 547 ± 43 mm^3 in series [1] (day 13, mean ± SEM); 914 ± 92 mm^3 in series [1] (day 16, mean ± SEM); 1438 ± 239 mm^3 in series [1] (day 20, mean ± SEM); 2102 ± 298 mm^3 in series [1] (day 23, mean ± SEM). In series [1] (day 23), this molecule yielded a T/C of 120%. The results for the “Tumor Size at day 23” value in series [1] and in series [1] (listed as crizotinib) were 2102 ± 298 mm^3 and 2,102 mm^3, respectively. In addition, the “antitumor activity (in words)” value in series [1] (doses as in Table 14) is “no antitumor activity”. In series [1] (doses as in Table 14), the “tolerability / body weight loss (in words)” value is “More severe body weight loss”.

B1: A3 M72S: serine mutant of c-Met domain A3 in the context of ECB15, SEQ ID NO: 220 (protein)
chain: LPAPKNLVVSRVTEDSARLSWTAPDAAFDSFWIRYFEFLGSGEAIVLTVPGSERSYDLTGLKPGTEYVVNISGVKGGKISPPLSAIFTT
modifications: c-Met binding FN3 domain
For the molecule B1, in series [2], the “binding to c-Met (in words)” value is recorded as “No binding was measurable” and the Kd was greater than 1000 nM.

B2: A3 R34S: serine mutant of c-Met domain A3 in the context of ECB15, SEQ ID NO: 221 (protein)
chain: LPAPKNLVVSRVTEDSARLSWTAPDAAFDSFWISYFEFLGSGEAIVLTVPGSERSYDLTGLKPGTEYVVNIMGVKGGKISPPLSAIFTT
modifications: c-Met binding FN3 domain
Take B2: in series [2], the “binding to c-Met (in words)” value is “No binding was measurable” and the Kd was greater than 1000 nM.

B3: P114AR7P92-G8: c-Met-binding FN3 domain, SEQ ID NO: 36 (protein)
chain: LPAPKNLVVSRVTEDSARLSWTAPDAAFDSFVIRYFEFLGSGEAIVLTVPGSERSYDLTGLKPGTEYVVQILGVKGGYISIPLSAIFTT
modifications: c-Met binding FN3 domain
On to B3, for which the “Thermal Stability (Tm)” value in series [3] came to 90.9 C.

B4: P114AR7P92-H5: c-Met-binding FN3 domain, SEQ ID NO: 37 (protein)
chain: LPAPKNLVVSRVTEDSARLSWTAPDAAFDSFWIRYLEFLLGGEAIVLTVPGSERSYDLTGLKPGTEYVVQIMGVKGGTVSPPLSAIFTT
modifications: c-Met binding FN3 domain
Take B4: in series [3], the “Thermal Stability (Tm)” value is recorded as 87 C.

B5: A3 F36S: serine mutant of c-Met domain A3 in the context of ECB15, SEQ ID NO: 218 (protein)
chain: LPAPKNLVVSRVTEDSARLSWTAPDAAFDSFWIRYSEFLGSGEAIVLTVPGSERSYDLTGLKPGTEYVVNIMGVKGGKISPPLSAIFTT
modifications: c-Met binding FN3 domain
As to B5, in series [2], the ka was 188000 M⁻¹ s⁻¹ and the kd came out at 0.00512 s⁻¹.

B6: A3 L39S: serine mutant of c-Met domain A3 in the context of ECB15, SEQ ID NO: 214 (protein)
chain: LPAPKNLVVSRVTEDSARLSWTAPDAAFDSFWIRYFEFSGSGEAIVLTVPGSERSYDLTGLKPGTEYVVNIMGVKGGKISPPLSAIFTT
modifications: c-Met binding FN3 domain
In series [2], B6 came in with a ka of 475000 M⁻¹ s⁻¹ and a kd of 0.00127 s⁻¹.

B7: A3 V68S: serine mutant of c-Met domain A3 in the context of ECB15, SEQ ID NO: 215 (protein)
chain: LPAPKNLVVSRVTEDSARLSWTAPDAAFDSFWIRYFEFLGSGEAIVLTVPGSERSYDLTGLKPGTEYSVNIMGVKGGKISPPLSAIFTT
modifications: c-Met binding FN3 domain
In series [2], B7 came in with a ka of 329000 M⁻¹ s⁻¹ and a kd of 0.0012 s⁻¹.

B8: A3 F38S: serine mutant of c-Met domain A3 in the context of ECB15, SEQ ID NO: 222 (protein)
chain: LPAPKNLVVSRVTEDSARLSWTAPDAAFDSFWIRYFESLGSGEAIVLTVPGSERSYDLTGLKPGTEYVVNIMGVKGGKISPPLSAIFTT
modifications: c-Met binding FN3 domain
Take B8: in series [2], the ka amounted to 45100 M⁻¹ s⁻¹ and the kd is 0.0323 s⁻¹.

B9: A3 G40S: serine mutant of c-Met domain A3 in the context of ECB15, SEQ ID NO: 213 (protein)
chain: LPAPKNLVVSRVTEDSARLSWTAPDAAFDSFWIRYFEFLSSGEAIVLTVPGSERSYDLTGLKPGTEYVVNIMGVKGGKISPPLSAIFTT
modifications: c-Met binding FN3 domain
Consider B9, for which, in series [2], the ka stood at 185000 M⁻¹ s⁻¹ and the kd came out at 0.00032 s⁻¹.

B10: A3 P81S: serine mutant of c-Met domain A3 in the context of ECB15, SEQ ID NO: 217 (protein)
chain: LPAPKNLVVSRVTEDSARLSWTAPDAAFDSFWIRYFEFLGSGEAIVLTVPGSERSYDLTGLKPGTEYVVNIMGVKGGKISSPLSAIFTT
modifications: c-Met binding FN3 domain
In series [2], B10 had a ka of 321000 M⁻¹ s⁻¹ and a kd of 0.000536 s⁻¹.

B11: A3 K78S: serine mutant of c-Met domain A3 in the context of ECB15, SEQ ID NO: 212 (protein)
chain: LPAPKNLVVSRVTEDSARLSWTAPDAAFDSFWIRYFEFLGSGEAIVLTVPGSERSYDLTGLKPGTEYVVNIMGVKGGSISPPLSAIFTT
modifications: c-Met binding FN3 domain
In series [2], B11 displayed a ka of 440000 M⁻¹ s⁻¹ and a kd of 0.00015 s⁻¹.

B12: A3 N70S: serine mutant of c-Met domain A3 in the context of ECB15, SEQ ID NO: 216 (protein)
chain: LPAPKNLVVSRVTEDSARLSWTAPDAAFDSFWIRYFEFLGSGEAIVLTVPGSERSYDLTGLKPGTEYVVSIMGVKGGKISPPLSAIFTT
modifications: c-Met binding FN3 domain
Take B12: in series [2], the ka turned out to be 425000 M⁻¹ s⁻¹ and the kd stood at 0.00249 s⁻¹.

B13: A3 W32S: serine mutant of c-Met domain A3 in the context of ECB15, SEQ ID NO: 219 (protein)
chain: LPAPKNLVVSRVTEDSARLSWTAPDAAFDSFSIRYFEFLGSGEAIVLTVPGSERSYDLTGLKPGTEYVVNIMGVKGGKISPPLSAIFTT
modifications: c-Met binding FN3 domain
B13: in series [2], the ka was found to be 289000 M⁻¹ s⁻¹ and the kd amounted to 0.0086 s⁻¹.

B14: A3 179S: serine mutant of c-Met domain A3 in the context of ECB15, SEQ ID NO: 223 (protein)
chain: LPAPKNLVVSRVTEDSARLSWTAPDAAFDSFWIRYFEFLGSGEAIVLTVPGSERSYDLTGLKPGTEYVVNIMGVKGGKSSPPLSAIFTT
modifications: c-Met binding FN3 domain
Take B14: in series [2], the “binding to c-Met (in words)” value is “No binding was measurable” and the Kd was greater than 1000 nM.

B15: P114AR7P93-G8: c-Met-binding FN3 domain, SEQ ID NO: 39 (protein)
chain: LPAPKNLVVSRVTEDSARLSWTAPDAAFDSFWIRYFEFLGSGEAIVLTVPGSERSYDLTDLKPGTEYGVTINGVKGGRVSTPLSAIFTT
modifications: c-Met binding FN3 domain
For B15, in series [3], the “Thermal Stability (Tm)” value was 76.8 C.

B16: P114AR7P94-E5: c-Met-binding FN3 domain, SEQ ID NO: 42 (protein)
chain: LPAPKNLVVSRVTEDSARLSWTAPDAAFDSFWIRYFEFLGSGEAIVLTVPGSERSYDLTGLKPGTEYAVNIMGVKGGRVSVPLSAIFTT
modifications: c-Met binding FN3 domain
Consider B16, for which the “Thermal Stability (Tm)” value in series [3] stood at 80 C.

B17: P114AR7P93-H9: c-Met-binding FN3 domain, SEQ ID NO: 40 (protein)
chain: LPAPKNLVVSRVTEDSARLSWTAPDAAFDSFWIRYFEFLGSGEAIVLTVPGSERSYDLTGLKPGTEYVVQIIGVKGGHISLPLSAIFTT
modifications: c-Met binding FN3 domain
Consider B17, for which the “Thermal Stability (Tm)” value in series [3] was 88.2 C.

B18: P114AR7P95-D4: c-Met-binding FN3 domain, SEQ ID NO: 45 (protein)
chain: LPAPKNLVVSRVTEDSARLSWTAPDAAFDSFWIRYFEFLGSGEAIVLTVPGSERSYDLTGLKPGTEYVVQILGVKGGYISIPLSAIFTT
modifications: c-Met binding FN3 domain
B18: the “Thermal Stability (Tm)” value in series [3] was 85.3 C.

B19: P114AR7P94-A3: c-Met-binding FN3 domain, SEQ ID NO: 41 (protein)
chain: LPAPKNLVVSRVTEDSARLSWTAPDAAFDSFWIRYFEFLGSGEAIVLTVPGSERSYDLTGLKPGTEYVVNIMGVKGGKISPPLSAIFTT
modifications: c-Met binding FN3 domain
For the molecule B19, in series [3], the “Thermal Stability (Tm)” value turned out to be 86.2 C.

A word on the T/C: it is the result in the treated group divided by that in the control group, in per cent. The Kd is the concentration at which binding is half-saturated. High values mean a looser complex, low ones a tighter complex.
